Source: the supplement of paper PMC10065799, “High-throughput profiling of sequence recognition by tyrosine kinases and SH2 domains using bacterial peptide display” (eLife, 2023)

What was measured:
Grb2 SH2 = Grb2 SH2 (UniProt P62993); experiment: SH2 binding enrichment of the phosphorylated peptide, bacterial display (enrichment ratio); higher = better substrate or ligand; peptides without Tyr show the background
c-Src SH2 = experiment: as above
SHP2-C SH2 = experiment: as above
EPHB2 = EPHB2 (UniProt P29323); experiment: phosphorylation enrichment, bacterial display (enrichment ratio); higher = better substrate or ligand; peptides without Tyr show the background
EPHB1 = EPHB1 (UniProt P54762); experiment: as above
FGFR3 = FGFR3 (UniProt P22607); experiment: as above
MERTK = MERTK (UniProt Q12866); experiment: as above
c-Src = experiment: as above
c-Abl (mouse) = experiment: as above
Hck = Hck (UniProt P08631); experiment: as above
Jak2 = Jak2 (UniProt O60674); experiment: as above
Fes = Fes (UniProt P07332); experiment: as above
Fyn = Fyn (UniProt P06241); experiment: as above
Fer (mouse) = experiment: as above
AncSZ = experiment: as above
FGFR1 = FGFR1 (UniProt P11362); experiment: as above
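Throughout, for SH2 binding enrichment of the phosphorylated peptide, bacterial display: peptide library displayed on the E. coli surface as eCPX fusions, selected cells deep-sequenced, score is each peptide's frequency after selection divided by its frequency in the input.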
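Throughout, for phosphorylation enrichment, bacterial display: 11-residue human phosphosite peptides and single-mutation variants displayed on the E. coli surface, counted by deep sequencing, each peptide's frequency after selection divided by its frequency in the unselected input library; frequency after pTyr selection over input frequency; kinase dosed for 20-30% of maximal phosphorylation in three min.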

Sequence of FGFR1 (P11362 whole entry, looked up, the tested form may be a part): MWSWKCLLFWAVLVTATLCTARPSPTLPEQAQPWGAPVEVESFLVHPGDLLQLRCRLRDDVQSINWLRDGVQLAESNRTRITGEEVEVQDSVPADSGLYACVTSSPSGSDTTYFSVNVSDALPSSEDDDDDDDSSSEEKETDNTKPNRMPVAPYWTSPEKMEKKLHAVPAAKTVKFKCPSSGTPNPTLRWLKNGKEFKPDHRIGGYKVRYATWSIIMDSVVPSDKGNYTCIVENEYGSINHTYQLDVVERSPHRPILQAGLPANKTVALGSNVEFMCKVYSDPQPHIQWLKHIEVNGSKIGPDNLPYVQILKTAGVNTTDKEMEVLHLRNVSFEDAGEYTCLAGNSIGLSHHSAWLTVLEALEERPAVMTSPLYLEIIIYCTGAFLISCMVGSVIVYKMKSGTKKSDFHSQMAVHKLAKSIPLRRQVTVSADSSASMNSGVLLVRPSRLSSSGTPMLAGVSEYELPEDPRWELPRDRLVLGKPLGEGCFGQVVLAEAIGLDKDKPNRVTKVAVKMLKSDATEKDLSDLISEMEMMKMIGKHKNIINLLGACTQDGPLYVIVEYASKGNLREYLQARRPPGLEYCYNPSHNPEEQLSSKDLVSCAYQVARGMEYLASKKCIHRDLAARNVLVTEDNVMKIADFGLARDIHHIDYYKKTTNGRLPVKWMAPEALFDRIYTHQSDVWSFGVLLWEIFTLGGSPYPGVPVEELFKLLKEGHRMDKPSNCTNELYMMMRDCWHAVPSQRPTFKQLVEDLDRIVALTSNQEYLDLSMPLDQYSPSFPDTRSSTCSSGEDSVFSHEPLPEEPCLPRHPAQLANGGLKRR
Sequence of Fes (P07332 whole entry, looked up): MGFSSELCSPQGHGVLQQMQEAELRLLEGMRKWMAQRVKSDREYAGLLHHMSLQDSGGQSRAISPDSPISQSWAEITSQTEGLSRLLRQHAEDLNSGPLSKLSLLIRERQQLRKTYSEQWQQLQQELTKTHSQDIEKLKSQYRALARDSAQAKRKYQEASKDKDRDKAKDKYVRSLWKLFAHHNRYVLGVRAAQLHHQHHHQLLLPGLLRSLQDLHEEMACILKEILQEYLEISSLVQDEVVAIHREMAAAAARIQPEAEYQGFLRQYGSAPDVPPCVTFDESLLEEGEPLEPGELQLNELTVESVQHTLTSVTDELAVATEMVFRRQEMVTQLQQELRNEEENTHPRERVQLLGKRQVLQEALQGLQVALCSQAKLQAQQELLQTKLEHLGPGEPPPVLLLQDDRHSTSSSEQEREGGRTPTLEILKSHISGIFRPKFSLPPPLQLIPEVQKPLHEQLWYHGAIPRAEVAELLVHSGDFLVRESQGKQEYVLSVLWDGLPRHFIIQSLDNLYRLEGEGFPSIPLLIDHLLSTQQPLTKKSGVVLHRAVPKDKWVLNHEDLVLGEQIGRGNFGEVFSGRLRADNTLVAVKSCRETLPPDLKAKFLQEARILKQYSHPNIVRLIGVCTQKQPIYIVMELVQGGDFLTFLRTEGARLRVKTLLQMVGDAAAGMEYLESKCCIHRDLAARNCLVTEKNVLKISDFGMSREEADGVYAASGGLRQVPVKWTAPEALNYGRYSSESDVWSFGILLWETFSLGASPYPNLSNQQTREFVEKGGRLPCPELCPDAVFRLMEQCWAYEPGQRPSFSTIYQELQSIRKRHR
Sequence of Jak2 (O60674 whole entry, looked up): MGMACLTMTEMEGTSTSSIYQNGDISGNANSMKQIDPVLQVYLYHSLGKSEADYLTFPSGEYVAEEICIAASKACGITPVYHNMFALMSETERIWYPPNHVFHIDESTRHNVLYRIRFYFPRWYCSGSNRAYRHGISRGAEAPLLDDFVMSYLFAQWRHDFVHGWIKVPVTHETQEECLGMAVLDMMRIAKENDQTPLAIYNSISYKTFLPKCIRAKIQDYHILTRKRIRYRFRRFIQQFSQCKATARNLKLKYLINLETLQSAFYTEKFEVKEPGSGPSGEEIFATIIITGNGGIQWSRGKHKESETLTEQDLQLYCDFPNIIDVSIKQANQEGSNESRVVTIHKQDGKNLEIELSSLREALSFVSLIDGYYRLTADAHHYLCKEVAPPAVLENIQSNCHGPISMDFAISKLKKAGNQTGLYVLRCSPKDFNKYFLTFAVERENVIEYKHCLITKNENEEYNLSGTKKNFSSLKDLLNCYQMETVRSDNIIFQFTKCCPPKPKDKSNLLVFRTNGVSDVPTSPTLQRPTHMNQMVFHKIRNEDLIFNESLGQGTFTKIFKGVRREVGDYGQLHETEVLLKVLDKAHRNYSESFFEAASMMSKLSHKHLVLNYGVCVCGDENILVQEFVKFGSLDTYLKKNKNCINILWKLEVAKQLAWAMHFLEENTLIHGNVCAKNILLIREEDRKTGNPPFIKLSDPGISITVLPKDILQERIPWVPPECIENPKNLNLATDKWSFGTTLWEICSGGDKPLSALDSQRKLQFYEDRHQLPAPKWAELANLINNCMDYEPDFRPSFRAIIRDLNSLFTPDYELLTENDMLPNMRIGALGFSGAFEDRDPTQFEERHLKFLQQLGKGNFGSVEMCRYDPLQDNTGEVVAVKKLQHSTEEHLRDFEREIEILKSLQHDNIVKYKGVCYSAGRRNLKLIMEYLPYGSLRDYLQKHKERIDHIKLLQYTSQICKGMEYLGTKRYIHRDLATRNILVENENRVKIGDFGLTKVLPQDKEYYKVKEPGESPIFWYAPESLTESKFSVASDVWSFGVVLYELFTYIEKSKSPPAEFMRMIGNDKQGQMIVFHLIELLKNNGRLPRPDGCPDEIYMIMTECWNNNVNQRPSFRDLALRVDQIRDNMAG
Sequence of MERTK (Q12866 whole entry, looked up): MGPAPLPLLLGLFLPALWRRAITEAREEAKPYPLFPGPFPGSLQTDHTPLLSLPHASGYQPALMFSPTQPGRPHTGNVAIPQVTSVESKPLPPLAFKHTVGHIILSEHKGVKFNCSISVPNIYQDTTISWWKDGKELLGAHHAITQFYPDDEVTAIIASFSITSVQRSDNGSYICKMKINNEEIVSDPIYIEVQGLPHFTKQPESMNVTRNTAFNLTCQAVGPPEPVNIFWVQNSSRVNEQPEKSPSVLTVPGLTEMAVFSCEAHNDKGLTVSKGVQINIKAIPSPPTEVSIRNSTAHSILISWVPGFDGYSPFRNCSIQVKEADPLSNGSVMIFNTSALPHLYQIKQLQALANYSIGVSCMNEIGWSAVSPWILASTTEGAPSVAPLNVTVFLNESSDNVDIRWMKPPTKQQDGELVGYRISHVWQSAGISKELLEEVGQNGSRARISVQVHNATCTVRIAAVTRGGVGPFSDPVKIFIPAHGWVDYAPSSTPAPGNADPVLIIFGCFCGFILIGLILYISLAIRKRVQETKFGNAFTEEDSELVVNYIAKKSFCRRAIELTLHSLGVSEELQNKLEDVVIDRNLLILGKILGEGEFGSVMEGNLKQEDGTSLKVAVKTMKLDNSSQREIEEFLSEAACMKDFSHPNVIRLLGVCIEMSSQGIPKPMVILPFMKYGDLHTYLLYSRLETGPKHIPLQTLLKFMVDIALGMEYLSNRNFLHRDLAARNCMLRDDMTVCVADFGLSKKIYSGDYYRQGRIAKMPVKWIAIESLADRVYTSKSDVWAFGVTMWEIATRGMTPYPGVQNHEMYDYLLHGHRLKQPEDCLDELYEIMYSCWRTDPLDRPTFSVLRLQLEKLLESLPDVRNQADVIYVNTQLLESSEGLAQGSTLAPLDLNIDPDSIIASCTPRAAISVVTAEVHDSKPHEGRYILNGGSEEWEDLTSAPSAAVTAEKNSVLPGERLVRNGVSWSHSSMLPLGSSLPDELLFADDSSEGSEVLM
Sequence of Hck (P08631 whole entry, looked up): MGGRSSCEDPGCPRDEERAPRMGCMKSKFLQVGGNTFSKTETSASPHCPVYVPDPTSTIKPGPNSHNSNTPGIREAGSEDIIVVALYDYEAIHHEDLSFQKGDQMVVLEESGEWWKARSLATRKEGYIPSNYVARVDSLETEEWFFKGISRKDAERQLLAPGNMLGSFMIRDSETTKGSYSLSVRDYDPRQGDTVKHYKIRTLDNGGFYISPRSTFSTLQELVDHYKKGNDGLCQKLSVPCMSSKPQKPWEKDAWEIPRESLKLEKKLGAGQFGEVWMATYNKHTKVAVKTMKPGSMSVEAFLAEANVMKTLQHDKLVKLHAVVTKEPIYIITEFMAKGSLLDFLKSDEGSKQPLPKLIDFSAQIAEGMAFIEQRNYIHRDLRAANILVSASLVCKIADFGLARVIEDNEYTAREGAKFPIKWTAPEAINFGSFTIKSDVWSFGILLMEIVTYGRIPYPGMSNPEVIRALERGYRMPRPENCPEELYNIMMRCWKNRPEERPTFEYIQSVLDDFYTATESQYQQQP
Sequence of Fyn (P06241 whole entry, looked up): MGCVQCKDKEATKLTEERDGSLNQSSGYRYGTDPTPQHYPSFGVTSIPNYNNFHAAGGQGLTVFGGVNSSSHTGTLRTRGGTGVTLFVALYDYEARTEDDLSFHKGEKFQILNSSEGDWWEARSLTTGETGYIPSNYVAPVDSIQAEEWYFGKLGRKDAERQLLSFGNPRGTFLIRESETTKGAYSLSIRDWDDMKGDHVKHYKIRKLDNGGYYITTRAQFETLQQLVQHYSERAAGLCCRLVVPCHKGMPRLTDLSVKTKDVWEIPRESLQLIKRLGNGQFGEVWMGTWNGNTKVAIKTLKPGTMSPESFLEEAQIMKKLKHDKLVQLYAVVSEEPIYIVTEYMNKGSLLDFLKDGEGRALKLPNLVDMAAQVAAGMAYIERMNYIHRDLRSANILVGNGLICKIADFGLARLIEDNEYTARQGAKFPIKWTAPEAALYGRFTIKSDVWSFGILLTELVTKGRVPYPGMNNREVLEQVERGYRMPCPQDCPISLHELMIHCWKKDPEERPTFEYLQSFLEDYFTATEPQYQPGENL
Sequence of Grb2 SH2 (P62993 whole entry, looked up): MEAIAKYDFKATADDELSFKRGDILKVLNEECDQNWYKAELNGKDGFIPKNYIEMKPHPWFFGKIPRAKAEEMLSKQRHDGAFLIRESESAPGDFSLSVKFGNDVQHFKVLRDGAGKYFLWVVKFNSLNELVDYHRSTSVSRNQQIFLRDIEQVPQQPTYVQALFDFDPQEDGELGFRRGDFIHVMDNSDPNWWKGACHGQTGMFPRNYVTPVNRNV

Row | Sequence | SH2 binding enrichment (Grb2 SH2) | SH2 binding enrichment (c-Src SH2) | SH2 binding enrichment (SHP2-C SH2) | phosphorylation enrichment (EPHB2) | phosphorylation enrichment (EPHB1) | phosphorylation enrichment (FGFR3) | phosphorylation enrichment (MERTK) | phosphorylation enrichment (c-Src) | phosphorylation enrichment (c-Abl (mouse)) | phosphorylation enrichment (Hck) | phosphorylation enrichment (Jak2) | phosphorylation enrichment (Fes) | phosphorylation enrichment (Fyn) | phosphorylation enrichment (Fer (mouse)) | phosphorylation enrichment (AncSZ) | phosphorylation enrichment (FGFR1)
1 | ECKASYPGKIT [PRSS3_Y232] | 0.823 | 0.557 | 0.56 | 0.389 | 0.357 | 0.418 | 0.402 | 0.438 | 0.489 | 0.323 | 0.396 | 0.596 | 0.319 | 0.396 | 0.53 | 0.431
2 | ECKETYHEGEC [PRKN_Y372_A371T] | 0.884 | 0.889 | 0.75 | 0.728 | 0.608 | 0.808 | 0.629 | 0.645 | 1.03 | 0.694 | 1.62 | 1.62 | 0.649 | 0.696 | 1.47 | 0.721
3 | ECKFLYSRKEG [PTPN11_Y263_L261F] | 1.06 | 0.6 | 0.626 | 0.594 | 0.576 | 0.593 | 0.436 | 0.423 | 0.639 | 0.618 | 0.849 | 0.939 | 0.537 | 0.362 | 0.969 | 0.495
4 | EDAHHYLCKEV [JAK2_Y382_A377E] | 1.08 | 0.603 | 0.781 | 0.493 | 0.656 | 0.778 | 0.411 | 0.366 | 0.657 | 0.439 | 0.632 | 0.857 | 0.542 | 0.441 | 0.799 | 0.588
5 | EDASEYFENYI [PARP4_Y214] | 0.933 | 0.498 | 0.675 | 0.66 | 0.549 | 0.83 | 0.527 | 0.539 | 0.658 | 0.597 | 1.15 | 1.21 | 0.613 | 0.51 | 1.62 | 0.84
6 | EDSEFYRAFEE [CASQ2_Y179_K180R_YF] | 0.963 | 0.751 | 0.682 | 0.525 | 0.582 | 0.848 | 0.449 | 0.494 | 0.771 | 0.513 | 1.02 | 1.07 | 0.538 | 0.489 | 1.15 | 0.473
7 | EEAAGCAQESQ [CAMKV_Y491_Y491C] | 0.974 | 0.79 | 0.837 | 0.591 | 0.645 | 0.833 | 0.625 | 0.491 | 1.18 | 0.575 | 1.06 | 1.23 | 0.491 | 0.657 | 1.15 | 0.527
8 | EEHIPYTHMNG [INSR_Y1361] | 0.754 | 0.722 | 0.807 | 0.517 | 0.54 | 0.598 | 0.403 | 0.371 | 0.555 | 0.51 | 0.668 | 0.85 | 0.451 | 0.452 | 0.797 | 0.497
9 | EESREYDRLFE [PIK3R1_Y463_K459E_YF] | 0.829 | 6.69 | 0.473 | 0.681 | 0.489 | 0.762 | 0.546 | 0.654 | 1.07 | 0.657 | 1.48 | 1.49 | 0.493 | 0.599 | 1.46 | 0.609
10 | EFITRYIASLK [PSMA7_Y110_YF] | 1.32 | 0.873 | 0.72 | 0.506 | 0.585 | 0.536 | 0.475 | 0.435 | 0.648 | 0.436 | 0.695 | 0.806 | 0.495 | 0.454 | 0.84 | 0.419
11 | EFLKNYFTDKA [DSG2_Y775_R773K] | 0.764 | 0.365 | 0.882 | 0.63 | 0.527 | 0.493 | 0.531 | 0.632 | 0.573 | 0.556 | 0.808 | 0.827 | 0.581 | 0.361 | 0.847 | 0.555
12 | EFQKKYSDADI [CKAP5_Y1860_K1857Q_YF] | 0.772 | 0.459 | 0.59 | 0.383 | 0.399 | 0.544 | 0.344 | 0.35 | 0.745 | 0.487 | 0.594 | 0.921 | 0.422 | 0.378 | 0.837 | 0.442
13 | EGNEQYEGFCV [GRIA3_Y451_R450Q_YF] | 0.84 | 0.56 | 0.964 | 0.639 | 0.962 | 0.822 | 0.832 | 0.788 | 0.791 | 0.721 | 1.01 | 1.41 | 0.726 | 2.87 | 1.29 | 0.618
14 | EGTATYAAAIL [JUP_Y644_V648I] | 0.82 | 0.412 | 0.429 | 1.76 | 0.884 | 0.586 | 0.534 | 1.25 | 0.976 | 1.21 | 0.795 | 0.872 | 1.25 | 1.57 | 0.857 | 0.476
15 | EGWQVYRLGTR [MISP_Y95_A99T] | 1.03 | 0.546 | 0.871 | 0.457 | 0.416 | 0.645 | 0.325 | 3.69 | 0.525 | 1.03 | 0.733 | 0.75 | 1.78 | 0.45 | 0.846 | 0.44
16 | EILDVYIFLGP [GAA_Y340_G335E] | 0.965 | 0.46 | 0.793 | 0.889 | 0.912 | 1.79 | 1.15 | 0.962 | 0.649 | 0.742 | 1.37 | 1.27 | 0.934 | 0.532 | 1.4 | 2
